# According to patent US20220348681A1, “FUSED PROTEIN OF AN ANTIBODY WHICH RECOGNIZES CANCER-CELLS AND A STREPTAVIDIN MUTANT” (THE UNIVERSITY OF TOKYO, priority 2021, published 2022):
# B1: CEA-V2122-del5: fusion of scFv-type anti-CEACAM5 antibody and mutant streptavidin V2122 lacking 11 C-terminal amino acids including 6xHis tag (SEQ ID NO: 18) (protein)
# chain: MKYLLPTAAAGLLLLAAQPAMAQVKLEQSGAEVVKPGASVKLSCKASGFNIKDSYMHWLRQGPGQRLEWIGWIDPENGDTEYAPKFQGKATFTTDTSANTAYLGLSSLRPEDTAVYYCNEGTPTGPYYFDYWGQGTLVTVSSGGGGSGGGGSGGGGSENVLTQSPSSMSVSVGDRVNIACSASSSVPYMHWLQQKPGKSPKLLIYLTSNLASGVPSRFSGSGSGTDYSLTISSVQPEDAATYYCQQRSSYPLTFGGGTKLEIKGGGGSGGGGAEAGITGTWSDQLGDTFIVTAGADGALTGTYENAVGGAESRYVLTGRYDSAPATDGSGTALGWTVAWKNNSKNAHSATTWSGQYVGGADAKINTQWLLTSGTTNANAWKSTLVGHDTFTKVK
# Assay: Interaction analysis between CEA-V2122-del5 and modified biotin using Biacore T200 (single-cycle kinetics, bivalent analysis mode)
# Type: binding
# Conditions: analyte Psyche J-iodine
# Experimental: The interaction between CEA-V2122-del5 and a modified biotin was analyzed using Biacore T200. The Psyche J-iodine described in Production Example 1 was used herein as a modified biotin.
# The analysis method was specifically as follows. That is, an amine-coupling kit was used, a target value was set to be 3000 RU, and the purified CEA-V2122-del5 was immobilized on Sensor Chip CM5. With regard to the concentrations of the analytes, 2.5E−09 M was two-fold diluted, and 5 types of two-fold serial dilutions including 2.5E-09 M were prepared and used in the measurement. Regarding interaction analysis, data were obtained by single-cycle kinetics analysis. Using Biacore T200 Evaluation Software, version 2.0, the obtained data were subjected to curve fitting in a bivalent analysis mode, and the following values were obtained: ka1=6.3E+03, and kd1=8.0E−06.
# [1] = CEA-V2122-del5 immobilized on Sensor Chip CM5, 5 two-fold serial dilutions from 2.5E-09 M, curve fitting in bivalent analysis mode
molecule,measurement,setting,value
B1,ka1,[1],6.3E+03
same,kd1,[1],8.0E−06
same,KD=kd1/ka1,evaluation value from the bivalent analysis,1.3E−09
